{"source": "patent US20210268096A1", "about": "(TRELLIS BIOSCIENCE, published 2021)", "molecules": {"B1": {"name": "mAb 3D3 (antibody, V domains shown)", "VH": "EEQLVESGGGLVQPGRSLRLSCVGSGLRFEEHAMHWVRQAPGRGLEWVSGISWNSGSVGYADSVKGRFTTSRDNAKDILFLEMNTLRSEDTALYFCAIMVATTKNDFHYYKDVWGKGTTVTVSS", "VL": "QIVLTQSPATLSLSPGERATLSCKASQSVSNHLAWYQQKPGQAPRLLIYETSNRATGIPPRFSGSGSGTDFTLTISSLEPEDFAVYYCQQRNNWYTFGQGTKLEIK"}, "B2": {"name": "mAb 2D10 (antibody, V domains shown)", "VH": "QVQLVQSGPEVKKPGASVRLSCKASGYVFTNYGVSWVRQAPGQGLEWMGWSSPYNGNTYYAQKLKARVTMTTDTSTNTAYMELRSLRSDDTAVYYCGRDMLGVVQAVAGPFDSWGQGTLVTVSS", "VL": "DTPMTQSPSSVSASVGDRVTISCRASQGISNSLAWYQQKLGKAPQLLIYAASSLQSGVPSRFSGSGSGTDFTLTISSLQPEDFATYYCQQTNTFPFTFGPGTKVEVRR"}}, "key": {"[1]": {"target": "human chemokine receptor CX3CR1 (human) (UniProt P49238)", "sequence (P49238 whole entry)": "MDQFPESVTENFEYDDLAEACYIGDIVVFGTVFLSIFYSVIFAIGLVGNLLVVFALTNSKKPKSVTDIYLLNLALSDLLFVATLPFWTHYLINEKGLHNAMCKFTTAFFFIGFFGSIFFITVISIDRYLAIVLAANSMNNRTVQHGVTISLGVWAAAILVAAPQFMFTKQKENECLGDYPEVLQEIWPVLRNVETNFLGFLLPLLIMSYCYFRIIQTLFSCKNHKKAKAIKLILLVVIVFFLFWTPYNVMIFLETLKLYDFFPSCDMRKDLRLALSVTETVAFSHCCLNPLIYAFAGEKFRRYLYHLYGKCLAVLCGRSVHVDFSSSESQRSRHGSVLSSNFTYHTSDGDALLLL", "experiment": "cell-based or functional assay"}, "[2]": {"target": "T1, recombinant RSV G[161-197] (respiratory syncytial virus (RSV), UniProt P03423 161-197)", "T1 chain": "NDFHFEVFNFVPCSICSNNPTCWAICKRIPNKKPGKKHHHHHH", "experiment": "cell-based or functional assay"}}}
{"molecule": "RSV G ectodomain (G[ecto]) (from UniProt P03423 64-298)", "values": [{"measurement": "chemotactic index (fold-increase in THP-1 cell migration vs serum-free media) (fold (chemotactic index))", "setting": "[1]", "value": 3.9}]}
{"molecule": "recombinant RSV G[161-197] (from UniProt P03423 161-197) (peptide)", "values": [{"measurement": "chemotactic index (fold-increase in THP-1 cell migration vs serum-free media) (fold (chemotactic index))", "setting": "[1]", "value": 4.2}]}
{"molecule": "B1", "values": [{"measurement": "chemotactic index of 5 nM RSV G[161-197] pre-incubated with 25 nM mAb", "setting": "[2]", "value": "1.5 fold (chemotactic index)"}]}
{"molecule": "B2", "values": [{"measurement": "chemotactic index of 5 nM RSV G[161-197] pre-incubated with 25 nM mAb", "setting": "[2]", "value": "1 fold (chemotactic index)"}]}
